Measured values taken from patent US11312769B2, “Anti-TMEFF1 antibodies and antibody drug conjugates” (Bluefin BioMedicine, Inc., priority 2017, dated 2022).

T1: recombinant TMEFF1 (Homo sapiens, UniProt Q8IYR6)
T1 construct: generated to secrete the ECD from CHO cells to assist with biophysical evaluations; His tag (C); made in house; host or cells: CHO (ExpiCHO)
T1 sequence (Q8IYR6 40-330 limits assumed): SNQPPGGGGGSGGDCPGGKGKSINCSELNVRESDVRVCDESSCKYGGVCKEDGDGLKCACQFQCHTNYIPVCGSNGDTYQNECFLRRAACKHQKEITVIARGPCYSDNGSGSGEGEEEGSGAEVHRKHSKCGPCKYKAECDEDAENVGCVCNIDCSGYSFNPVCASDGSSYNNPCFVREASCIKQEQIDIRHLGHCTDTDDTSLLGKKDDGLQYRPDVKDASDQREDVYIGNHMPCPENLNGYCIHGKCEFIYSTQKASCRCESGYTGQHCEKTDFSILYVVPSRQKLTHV

B1: 36H6: human anti-TMEFF1 IgG1 antibody; VH SEQ ID NO: 43, VL SEQ ID NO: 47 (antibody, V domains shown)
VH: QVQLVESGGGVVQPGRSLRLSCAASGFTFSDYGMHWVRQAPGKGLEWVAVIWYEGGNKYYTDSVKGRFTISRDNSKNTLYLQMNSLRAEDTAVYYCARILLWFGESYGMDVWGQGTTVTVSS
VL: DIQMTQSPSSLSASVGDRVTITCRASQGISNYLAWYQQKPGKVPKLLIYAASTLQSGVPSRFSGSGSGTDFTLTISSLQPEDVATYYCQKYNNAPWTFGQGTKVEIK
B2: 31B7: human anti-TMEFF1 IgG1 antibody; VH SEQ ID NO: 17, VL SEQ ID NO: 21 (antibody, V domains shown)
VH: QVQLVESGGGVVQPGRSLRLSCAASGFTFSSYGMHWVRQAPGKGLEWVAVIWYNGINKYYADSVKGRFTISRDASKNTLYLQMNSLRAEDTAVYYCAREGLLWFGGMDVWGQGTTVTVSS
VL: EIVLTQSPLSLPVTPGEPASISCRSSQSLLHSNGYNYLHWYLQKPGQSPQLLIYLGSNRASGVPDRFSGSRSGTDFTLKIIRVEAEDVGVYYCMQALQTPYTFGQGTKLEIK
B3: 24F10: human anti-TMEFF1 IgG1 antibody; VH SEQ ID NO: 33, VL SEQ ID NO: 36 (antibody, V domains shown)
VH: QVQLVESGGGVVQPGRSLRLSCAASGFTFSSYGMHWVRQAPGKGLEWVAVIWYDGSDKYYTDSVKGRFTISRDNSKNTLYLQMNSLRAEDTAVYYCARESMVRGIVITFFDYWGQGTLVTVSS
VL: EIVMTQSPATLSVSPGERATLSCRASQSVSSNLAWYQQKPGQAPRLLIYGASTRATGIPARFSGSGSGTEFTLTISSLQSEDFAVYSCQHYNNWPPTFGGGTKVEIK

target: T1, recombinant TMEFF1; test: Binding competition binning (Octet); details: seven antibodies, 3 bins
Description: Binding competition among different antibodies was determined using a real-time, interferometry assay on an Octet Red™ instrument with Protein A-conjugated biosensors. To assess whether two antibodies competed for binding to a recombinant TMEFF1 protein, the assay was performed as follows. Protein A biosensors were first submerged into wells containing 10 ug/mL of individual monoclonal antibodies for 5 minutes. Following the capture step, the biosensors were dipped briefly (15 seconds) into buffer and then any unoccupied sites on the biosensor were saturated by submerging them for 5 minutes into wells containing 100 ug/mL of an irrelevant monoclonal antibody. The Octet biosensors were then dipped briefly (15 seconds) in buffer before immersion for 1 minute into wells containing recombinant TMEFF1. The biosensors were dipped briefly (15 seconds) in buffer before immersion for 1 minute into wells containing a second recombinant antibody.
For the control case where the second antibody was the same as the first, there was no increase in signal, because there was no additional binding to the recombinant target.
For the control case where buffer was used instead of the first antibody, no recombinant target bound the non-quenching antibody on the biosensor and no second antibody bound the biosensor.
Competition binning using Octet™ was done with seven antibodies and 3 separate bins were identified.

Competition binning (epitope bin)	Molecule
compete with each other and bind FS1	B1
compete with each other and bind FS1	B3

Molecule	Competition binning (epitope bin)
B2	bind a region different from FS1 or FS2 and compete with each other

test system: hTMEFF1-ECD recombinant deletion mutants; test: Binding domain determination with hTMEFF1-ECD deletion mutants (Octet); parameters: species or system human; key: FS1—follistatin domain 1; FS2—follistatin domain 2; details: full length TMEFF1 ECD vs ΔFS1, ΔFS2, ΔFS1&FS2
From the text: TMEFF1 recombinant proteins expressing 3 different deletion mutants, AFS1 (AFollistatin Domain 1), AFS2 (AFollistatin Domain 2) or AFS1&FS2 were used to identify binding domains among different antibodes using an Octet Red instrument with Anti-Penta-His (HIS 1K) biosensors. Expression of the 3 deletion mutants was confirmed by WB analysis. 100 ngs of purified TMEFF1 ECD was run along with unpurified supernatant of transfected CHO cells with the different deletion mutants. HIS 1K biosensors were loaded by submerging the biosensors into wells containing 10 ug/ml of full length TMEFF1 or one of 3 different deletion mutants (AFS1, AFS2 or AFS1&FS2) for 60 seconds. Following the loading step, the biosensors were then dipped for 30 seconds in PBS before immersion for 30 seconds in 200 ul of unpurified recombinant antibodies for 30 seconds. The biosensors were then dipped briefly (30 seconds) in PBS to observe any dissociation. Samples were determined to show binding or no binding by comparing to a control well that contained no recombinant antibody. Differential binding to the deletion mutants allowed for determination of binding sites on TMEFF1 recombinant protein. For cases where the antibody bound all 3 recombinant proteins, the binding is outside of the deleted domains. For the case where binding is observed only on full length TMEFF1 and AFS2, the antibody is binding in the ΔFS1 domain.
26 of the identified antibodies were checked for epitope domain binding by Octet™ using the hTMEFF1-ECD recombinant deletion mutants (see Table 7, below).

Binding region (epitope domain binding)	Molecule
FS1	B1
other	B2
FS1	B3

test system: 293-hTMEFF1 cells; test: Flow based antibody internalization assay; assay type: cell-based, human; details: 293-hTMEFF1 fixed with PFA, antibody 1 ug/ml, 30-120 min
Description: For Flow based internalization assay, 293-hTMEFF1 cells were collected and either fixed with 4% paraformaldehyde (PFA) for 20 minutes at 37° C. or kept live on ice. Cells were then incubated on ice for 40 minutes with anti-TMEFF1 antibody at 1 ug/ml, washed 2× with ice cold PBS, resuspended in complete warm media and incubated at 37° C. for 30, 60 or 120 minutes. Live cells were then fixed at those time points, washed 2× with PBS and labeled with fluorescent conjugated secondary antibody for 30 minutes on ice.
Antibody mediated TMEFF1 internalization was evaluated by Flow cytometry with five human anti-TMEFF1 antibodies in 293-hTMEFF1 cells. Fixed cells were treated with the antibody as a control of antibody loss due to detachment rather than internalization which would result in reduce signal. Thus a constant signal over time in fixed cells and a loss of signal in live cells would indicate antibody internalization. […] In live cells, it was observed that most antibodies show about a 50% internalization by 30 min of treatment (FIG. 1B).

Molecule	Cell surface binding in fixed cells over the duration of the assay
B1	consistent cell surface binding in fix cells
B2	consistent cell surface binding in fix cells
B3	consistent cell surface binding in fix cells
